# Assay: soluble on expression in E. coli; label from the status in PepcDB or PDB records
row,Sequence,soluble on expression in E. coli
1,MSAVVITDRHRRILKVNPAFTSISGFSANEVIGKNTFDVLLSESENIDKRLTTWKQVEELGAWQGELDVLSKNKRKLSLLVRIQSVKSKRKATQYYIISYIDITKR,not soluble
2,MSLMTLYPVVVQERTTGEVLMLAYANEEALELTKKTGYAHFFSRERQKIWKKGETSGNTMRVVEIRRDCDDDAYLYIVDFPEDKVACHTGNRSCFFKVEHRFEETGSPTFWLELYRLVRKRKEEMPEGSYTVKLFKEGKGKIAKKFGEEAVEVITGYLQNDRENLVWEIADMMYHLTVLMADAGVTVQDVMRELEKRRKEGHHHHHH,soluble
3,GPGSMEQPKGINILITGTPGTGKTSMAEMIAAELDGFQHLEVGKLVKENHFYTEYDTELDTHIIEEKDEDRLLDFMEPIMVSRGNHVVDYHSSELFPERWFHMVVVLHTSTEVLFERLTKRQYSEAKRAENMEAEIQCICEEEARDAYEDDIVLVRENDTLEQMAATVEEIRERVEVLKVERGL,soluble
4,SIETTKGGSGSYPIKTIVVLVQENRSFDHTLGWFKELNREIDGVTKSDPKSNTVSSSDTNSLRVVFGDQSQYVNPDPGHSIQDIYEQVFGKPWDSGKPDPNPGHPNMSGFAQNAERNKKGMSSAVMNGFKPNALPVYKELVQNFAICDRWFASVPASTQPNRLYVHSATSHGATSNDKKLLLEGFPQKTIFESLDEAGFSFGIYYQFPPSTLFYRNLRKLKYLTHFHQYGIQFKKDCKEGKLPNYVVVEQRWFDLLSTPANDDHPSHDVSEGQKLVKEVYEALRSSPQWNEILFIITYDEHGGFYDHVPTPVDGVPNPDGILGPPPYNFEFNRLGVRVPTFFISPWIEPGTVIHGPNGPYPRSQYEHSSIPATVKTIFKLKDFLSKRDSWAGTFESVITRDSPRQDCPETLSTPIKLRGTMAKENAQLSEFQEDLVIMAAGLKGDYKNEELIHKLCKETCVADASKYVTNAFEKFLEESRKARDRGCDENDIVYCVDDDDDHVVIPPQSHSEASNAAAQPKTQTSFFNKLFSCFIRHD,soluble
5,MGSDKIHHHHHHMLYRQKVLLALIDVFGGTIDRLYLQKMLFLLSQRQEKPIYEFVPYYYGGFSFTAQWDINALFRKGFLAVDKHTVTLVQKHPQLFDSVTERDMHFLHELCQQYRYKARNDLLRELYEQYPYYAQQSKILDEILDDEAKRRIKQCQDEESRIVLFTIGYEGRSLENYLNTLIRNGIKILVDVRNNPVSMKPGFSKSQLRTYCENLGIGYIHIPEVGIVSELRKNLKSQEDYEELFAAYRREILPTTVSFQQRILNILLCYHRIALTCFEAESQRCHRSHLADAISKLPEFSYEVVHL,not soluble
6,MGSDKIHHHHHHMSNKPFFYQDPFPLKKDDTEYYLLTSEHVSVAEFEGQEILKVAPEALTLLARQAFHDASFMLRPAHQQQVADILRDPQASENDKYVALQFLRNSDIAAKGVLPTCQDTGTAIIVGKKGQRVWTGGGDEAALARGVYNTYIEDNLRYSQNAALDMYKEVNTGTNLPAQIDLYSVDGDEYKFLCIAKGGGSANKTYLYQETKALLTPGKLKNYLVDKMRTLGTAACPPYHIAFVIGGTSAEANLKTVKLASAKYYDALPTEGNEHGQAFRDIELEKELLLEAQNLGLGAQFGGKYFAHDIRVIRLPRHGASCPVGMGVSCSADRNIKAKINRDGIWIEKLERNPGKYIPEALRQAGEGEAVRVDLNRPMSEILQQLSQYPVSTRLSLNGTIIVGRDIAHAKLKERMDRGEGLPQYIKDHPIYYAGPAKTPEGYASGSLGPTTAGRMDSYVDQLQSQGGSMIMLAKGNRSQQVTDACKKHGGFYLGSIGGPAAVLAQGSIKRLECVEYPELGMEAIWKIEVEDFPAFILVDDKGNDFFQQIQSSQCGAALSNVAALRGGNMIRYFAGERRKRLIRSTPLCCYR,not soluble
7,MREETKCALIIDESLPLGLIANTAAILGAALGKNKPDLIGETVTDGSGIDHLGIVKIPIPILKGNAELLHQLSQKLLTDEFNDILTVDFTDVAQSIHTYEAYIEAFQSTAASDYRYFGIGICGDKKKVARLTGSLGLLRLEHHHHHH,soluble
8,MGSDKIHHHHHHMFYYERVNQFDTIAVSVDSVDRRRIKGTIDLDGLKFIMYFDYTQDVDIDYDLAGMIMTMPVINYAYFAKRIKLNFPVSLSFLKLVKEFIRINNIETFINSIVRRRYEFFLKEYLPSDEEITQENAEGRTEVLADISDGDKKKLEVDDRKVIVLSSGGKESLLTFGILKEIGAVVYPVFFNESGAHWKTAKVAYDYFSSKYENVLRVWSNVDRFYSFVNRHLKILDQDEIRRKADSYPVQMFIFPVYIFSVLPYVIKYGIGNIALGDELDDPIYEEPYHGIKHYYGVYDQTNDFNLTLTSFLREYGIHCKVFSAVYPIFGTLVEKILVQRYNDLFRVQRSCHLCHYEGGDVKPCGTCSKCLGVLLFMLNAEADPTEAGYSIEHVKQLEDNVNSASMRLDPDELEYLKAKVFEGRRINSHIEGIHQLPGENSAFSLVPERFRDGVRSIVSKYSTGFYKFVGSEWVKID,not soluble
9,MPTTQINIVLAEPRCMAGEFFNAKVLLDSSDPDTVVHSFCAEIKGIGRTGWVNIHTDKIFETEKTYIDTQVQLCDSGTCLPVGKHQFPVQIRIPLNCPSSYESQFGSIRYQMKVELRASTDQASCSEVFPLVILTRSFFDDVPLNAMSPIDFKDEVDFTCCTLPFGCVSLNMSLTRTAFRIGESIEAVVTINNRTRKGLKEVALQLIMKTQFEARSRYEHVNEKKLAEQLIEMVPLGAVKSRCRMEFEKCLLRIPDAAPPTQNYNRGAGESSIIAIHYVLKLTALPGNGVLY,not soluble
10,APEAFLNSVLQPFVLPFLQRYPKIQLKLRAADGEIDLFRQGIDVAFKLTDKPDENLVLKEISKTNLVLCASPDYLAQRGMPEHPTQLEQHDCIYLAENDKDNIWSFFKEEAFHSIAVSGRYAVNHSQMRLNGVKAGLGIGIFHDFVVKEALERGEVVEVLSDWMIKSNYHGAVAMQYAQTKYMPARLRVFIGFVNEHLVSKEPTHV,not soluble
11,SKAVIVIPARYGSSRLPGKPLLDIVGKPMIQHVYERALQVAGVAEVWVATDDPRVEQAVQAFGGKAIMTRNDHESGTDRLVEVMHKVEADIYINLQGDEPMIRPRDVETLLQGMRDDPALPVATLCHAISAAEAAEPSTVKVVVNTRQDALYFSRSPIPYPRNAEKARYLKHVGIYAYRRDVLQNYSQLPESMPEQAESLEQLRLMNAGINIRTFEVAATGPGVDTPACLEKVRALMAQELAENA,soluble
12,PREPVVNDEMCDVCEVWTAESLFPCRVCTRVFHDGCLRRMGYIQGDSAAEVTEMAHTETGWSCHYCDNINLLLTEE,soluble
13,GSPDPEIFRQRFRQFGYQDSPGPREAVSQLRELCRLWLRPETHTKEQILELVVLEQFVAILPKELQTWVRDHHPENGEEAVTVLEDLESELDD,soluble
14,SGLRKMAQPSGLVEPCIVRVSYGNNVLNGLWLGDEVICPRHVIASDTTRVINYENEMSSVRLHNFSVSKNNVFLGVVSARYKGVNLVLKVNQVNPNTPEHKFKSIKAGESFNILACYEGCPGSVYGVNMRSQGTIKGSFIAGTCGSVGYVLENGILYFVYMHHLELGNGSHVGSNFEGEMYGGYEDQPSMQLEGTNVMSSDNVVAFLYAALINGERWFVTNTSMSLESYNTWAKTNSFTELSSTDAFSMLAAKTGQSVEKLLDSIVRLNKGFGGRTILSYGSLCDEFTPTEVIRQMYGVNLQ,soluble
15,MAHHHHHHMSEQILFDNFPLTFLNKDASEDYEDKNEKTYREKIKNIIEDLKSLRIEINEKYSIRSMLEEKLTLLQKEEQTKENNMKYIMNFSEHNIYEREVLNYQKNIAHLKKQIQTSNSKIKLLLEKEFKVRKQLQINYMNLYDILNERIEYIVENYVKHRKCSCAIYAYKQEKKEE,not soluble
16,MNALPSSAEFSRAVGGDAVSREAVIRIEHLSKTFSDAAGPVLDDVSLTIRRGEIHGIIGRSGAGKSTLVRCINLLERPSAGRVIVSGREITSLRGRALRNARRDIGMIFQHFNVLSSHTVAGNVALPFKVAGLPRAEIARRIPPLLELVGLAHKADAYPSELSGGQKQRVGIARALALDPSVLLCDEATSALDPETTDQILALLRDINRKLGLTIVLITHEMHVVRDIATRVAVLDHGRVVEEGATFDVLAFPKSAVARSFLSGLVAHELPPPVAAQLLPAAVPGSDPVLRIVFTGTAAHDPIVADLVSVFGIQPNILHGRIDYVGDRPLGVLTLVAGGAGEKLPAVLSHLSSLGLVVEVIGHAVRSAVARRHSAARLEHHHHHH,not soluble
17,MRGSHHHHHHGSGKSYPTVSADYQKAVEKAKKKLRGFIAEKRCAPLMLRLAWHSAGTFDKGTKTGGPFGTIKHPAELAHSANNGLDIAVRLLEPLKAEFPILSYADFYQLAGVVAVEVTGGPEVPFHPGREDKPEPPPEGRLPDATKGSDHLRDVFGKAMGLTDQDIVALSGGHTIGAAHKERSGFEGPWTSNPLIFDNSYFTELLSGEKEGLLQLPSDKALLSDPVFRPLVDKYAADEDAFFADYAEAHQKLSELGFADAHEM,soluble
18,MGHHHHHHSHMKNSSSVSNTLTNGCVINGHLDFPSTTPLSGMESRNGQCLTGTNGISSGLAPGQPFPSSQGSLCISGTEEPEKTLRANPELCGSLHLNGSPSSCIASRPSWVEDIGDNLYYGHYHGFGDTAESIPELNSVVEHSKSVKVQERYDSAVLGTMHLHHGS,soluble
19,MRFLIPIIFTTLPLCLQAQEDPCASAPSEAAKIMCKQIHRWDDGARAASKKKKIALPPGMAKGMAAEFAPIASNIYQCMDLPCLCSYLRGTASGNGCTLPNGRPLQKSVRKEYRTLTDDERNRLHAAFRALKNNGEYERIGRIHSQMSAAGGAHSGPAFLPWHREFVKRVEFALRQVDPTVNLPYWDSTLDSRLPRPADTIMFSDYLMGSTGLVNDGPFTNWRTLAGRAQILRAVGAQGAPLSQNDIDFVMRQTQIDQVLSFTAPQQGCPYRTDFNCLEYTHGNVHIFVGGDMFDTATSSNDPSFFLHHAFIDFVWEEWRLARQSRADREIAFPPDNQLCASAQHFGASPMQPFSPMRNIDGLSNKYTDNLYSYAPRPTCQAGGDCGSKFLFCDTSTGAARCVSRIRPGSQCGQFRVNPCFSGICQNGVCVLSSTAPRPTPAPTTPTPQNPVQSQESCFNENQCCASWAASGECSRNTAYMNEWCKASCGVCKPKYRLADDCTDRHTQCSSWSRSGECTKNQLWMTENCRKSCNKCGRSRAQECGGGGTTVTTTTPAPAQQCDNSDGCFNENVCCAVWGLMGECRKNTRYMACNCRVSCGHCYPEDYNYGSCVDYHRSCAGWARVGECQKNPWMAENCRSSCNSCYTQSELRRMCGTTAGSVAPVAQVRQTNPSRQPPRGGWGRDDFGDNGGWGGNGGGGWGNNDPWGGSRWGGGRGGWGGGGWGGGGWGKRSIRAANASISMPSFDPDLL,not soluble
20,MPLTDTPPSVPQKPRRGRPRGAPDASLAHQSLIRAGLEHLTEKGYSSVGVDEILKAARVPKGSFYHYFRNKADFGLALIEAYDTYFARLLDQAFLDGSLAPLARLRLFTRMAEEGMARHGFRRGCLVGNLGQEMGALPDDFRAALIGVLETWQRRTAQLFREAQACGELSADHDPDALAEAFWIGWEGAILRAKLELRPDPLHSFTRTFGRHFVTRTQE,soluble
21,MVKRANTFAMRPLTADDEQVLRDLLDASAALWNEINYQRLMRYNDKDGFEDEDVWDADTGALEGKYKAVLGASTAQTVRRANTEAWRSFFRLKKQFHDESNTSVTEHPEPPGFRGNKDDGRVLKGVVRKDAYSVEWGDRSRLEMVVGEQLRDRHNSPKSRLRLEIVGDPNWSDYEDQGRLELWYDETDCTFRASQPVTVSDDARATPLANEKAALDIGANNLVACTTTTGQQYLYEGRELFQRFRETTREIARLQSKLPEGRYSSKRIRRLYRKRTRRRDHAQETLCRDLLEQLYGEGVDTVYIGGLTDVLETHWSAETNAKTHNFWAFKQFTERLAWTADEYGISVEVRSEAWTSQECPQCGSTDRTTRQQDTLTCPCGFEGHADVTASETFLERHTEKAVRPMARPVRFEWDDHEWSESPRSPARESPKEQRTDPSTVPRDGNVVSGDSLEHHHHHH,not soluble

# Reference: the DeepSol protein solubility set
